Measured values from US10202593B2, “Evolved sortases and uses thereof” (President and Fellows of Harvard College, priority 2013, dated 2019).
Changes are numbered by the printed parent chain. Names and notes keep the numbering of the source.

B1: eSrtA (protein)
chain: QAKPQIPKDKSKVAGYIEIPDADIKEPVYPGPATREQLNRGVSFAEENESLDDQNISIAGHTFIDRPNYQFTNLKAAKKGSMVYFKVGNETRKYKMTSIRNVKPTAVEVLDEQKGKDKQLTLITCDDYNEETGVWETRKIFVATEVK
B2: eSrtA(2A-9): P94R, S102C, A104H, E105D, K138P, K152I, N160K, K162H, T164N, D165A, K173E, I182V, K190E, T196S (protein)
chain: QAKPQIPKDKSKVAGYIEIPDADIKEPVYPGPATREQLNRGVCFHDENESLDDQNISIAGHTFIDRPNYQFTNLKAAKPGSMVYFKVGNETRIYKMTSIRKVHPNAVEVLDEQEGKDKQLTLVTCDDYNEETGVWESRKIFVATEVK
B3: eSrtA(4S-9): P94R, N98D, S102C, A104V, A118T, F122A, K134R, F144L, D160N, D165A, I182V, E189F, K190E, K196T (protein)
chain: B1 chain with N39D, S43C, A45V, A59T, F63A, K75R, F85L, I123V, E130F

Key:
fetuin A in human plasma = molecular target: T1, fetuin A in human plasma (Homo sapiens, UniProt P02765); assay: Plasma labeling of fetuin A with GGGK(biotin); type: biochemical; settings: for overall conjugation efficiency in human plasma (fetuin A, densitometry): 2 hours, room temperature
T1 construct: site-specific modification of endogenous fetuin A in human plasma; tissue VWR 89347-902; host or cells: normal human plasma
T1 sequence (P02765 19-367): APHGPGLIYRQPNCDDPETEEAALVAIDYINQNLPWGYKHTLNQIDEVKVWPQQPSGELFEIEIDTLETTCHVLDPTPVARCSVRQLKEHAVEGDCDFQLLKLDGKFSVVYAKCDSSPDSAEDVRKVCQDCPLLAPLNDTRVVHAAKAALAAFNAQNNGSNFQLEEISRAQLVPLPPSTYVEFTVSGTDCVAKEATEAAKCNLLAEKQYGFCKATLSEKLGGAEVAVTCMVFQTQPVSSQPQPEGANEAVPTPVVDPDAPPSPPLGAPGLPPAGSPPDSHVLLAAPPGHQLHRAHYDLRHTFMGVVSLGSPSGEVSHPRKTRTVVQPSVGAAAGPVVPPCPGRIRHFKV
Method: FIG. 21A-D show applications of evolved sortases. (A) N- and C-terminal labeling of fibroblast growth factors FGF1 and FGF2. Tandem SUMO-TEV cleavage site-FGF1/2-LPESG-His6 (SEQ ID NO: 27) constructs were treated with eSrtA(4S-9) in the presence of GGG-PEG, then with eSrtA(2A-9) and TEV protease in the presence of Alexa Fluor750-LAETGG (SEQ ID NO: 35) and purified to afford the final conjugates in up to 20% yield (Table 3). The crude reactions were analyzed by SDS-PAGE and scanned for fluorescence at 700 nm. (B) Surface functionalization using eSrtA(2A-9) and eSrtA(4S-9). 96-well plates coated with GGG-PEG (5 kDa) were incubated with enzyme and Alexa Flur 488-LAETG (SEQ ID NO: 5; green) or Alexa Fluor 647-LPESG (SEQ ID NO: 3; red) for 2 hours, then washed three times. The total fluorescence of the resulting surfaces was measured at 488 nm or 647 nm, then normalized to the fluorescent intensities obtained from the samples containing eSrtA(2A-9)+488-LAETG (SEQ ID NO: 5) or eSrt(4S-9)+647-LPESG (SEQ ID NO: 3). (C, D) Treatment of human plasma with evolved SrtA variants for 2 hours at room temperature in the presence of GGGK(biotin) (SEQ ID NO: 22) with or without 10 mM CaCl2. […] Biotin capture and mass spectrometry identified this protein as fetuin A, confirmed by subsequent Western blot (D).
Normal human plasma was purchased from VWR (part number 89347-902) and stored at −20° C. For all reactions, an aliquot was thawed at 37° C. for 15 minutes, then vortexed to resuspend any coagulated material. To this sample was added 2 μL of 0.1 M GGGK(biotin) (SEQ ID NO: 22) for analytical reactions. Higher concentrations of GGGK(biotin) (SEQ ID NO: 22) were avoided for analytical purposes, as they caused increased background in downstream Western blotting. 10 μL of 1 M CaCl2 was added in cases of calcium supplementation. Reactions were initiated by the addition of 10 μL of 100 μM eSrtA, eSrtA(2A-9), or eSrtA(4S-9) and incubated at room temperature for 2 hours. Reactions were quenched by 10:1 dilution into SDS-PAGE loading buffer, followed by a 10 minute incubation at 95° C. These samples were then run on 4-12% Bis-Tris PAGE gels, blotted to PVDF membrane using the iBlot2 dry blotting system, blocked with Pierce Superblock buffer for 1 hour followed by incubation with 1:500 dilutions of Abcam α-Fetuin A antibody (MM0273-6M23) in Superblock buffer with 0.1% Tween-20 for 1 hour. The blot was then washed 3 times with PBS+0.1% Tween-20, then incubated again in 1:15,000 LiCor goat antimouse 680+1:15,000 Licor Streptavidin-800 in Superblock buffer with 0.1% Tween and 0.01% SDS added for 45 minutes. The blot was then washed 3 times with PBS+0.1% Tween and visualized on an Odyssey IR imager.
As in analytical labeling of Fetuin A, 1 mL of normal human plasma was combined with 10 μL 1M CaCl2, 10 μL of 0.1M GGGK(Biotin) (SEQ ID NO: 22), and 10 μL of 100 μM eSrtA(4S-9), then incubated at room temperature for 2 hours. 100 μL of pre-equilibrated Ni-NTA resin slurry and 12.5 μL 0.4M H2N-LPESGG (SEQ ID NO: 38) peptide was added to the mixture to act as a competitive inhibitor for thioester formation. The mixture was incubated at room temperature with shaking for 15 minutes, then filtered through a 0.2 μm spin filter before dilution to 10 mL final volume in PBS+1 mM EDTA+100 μM H2N-LPESGG (SEQ ID NO: 38) (PBS-EL). The solution was concentrated using a 10 kDa molecular weight cutoff spin concentrator for 20 minutes at 3500×g and a final volume of <1 mL. […]

[1] = Differential scanning fluorimetry for thermal melting curves; type: physicochemical
Method: FIGS. 25A-C show thermal melting curves for eSrtA variants. Each protein was freshly expressed and purified, then diluted to 40 μM in 100 mM Tris pH 7.5, 500 mM NaCl. Differential scanning fluorimetry was performed using the Life Technologies Protein Thermal Shift™ Dye kit according to manufacturers' instructions. Thermal scanning was performed on Biorad CFX96-Real Time PCR (25° C. to 99° C., 0.2° C./2s increments). To calculate Tm, fluorescence intensity was fit to the Boltzmann equation using Microsoft Excel using the Solver add-in. Melting curves were plotted with best-fit fluorescence intensities that were normalized to maximum fluorescence intensity. Tm values are shown with their standard deviations as determined from three technical replicates.
To determine thermal stability of eSrtA, eSrtA(2A-9), eSrtA(4S-9), and variants thereof, each protein was freshly expressed and purified, then diluted to 40 μM in 100 mM Tris pH 7.5, 500 mM NaCl. Differential scanning fluorimetry was performed using the Life Technologies Protein Thermal Shift™ Dye kit according to manufacturers' instructions. […] To calculate Tm, fluorescence intensity was fit to the Boltzmann equation using Microsoft Excel using the Solver add-in. Melting curves were plotted with best-fit fluorescence intensities that were normalized to maximum fluorescence intensity.

[2] = presence of supplemental calcium (10 mM CaCl2)

Molecule | fetuin A conjugation efficiency lower than that of eSrtA(4S-9) (fetuin A in human plasma; 10 mM added CaCl2) [fold] | overall conjugation efficiency in human plasma (fetuin A, densitometry) (fetuin A in human plasma; [2]) [%] | processing of fetuin A (fetuin A in human plasma; without supplemental calcium) | ΔTm compared to eSrtA [1] [°C] | overall conjugation efficiency in human plasma (fetuin A, densitometry) (fetuin A in human plasma; absence of supplemental calcium) [%]
B1 | 90 | 0.6 | no processing |  | 
B2 |  |  |  | ~4.4 | 
B3 |  | 57.6 |  | ~4.4 | 1.8
